Patent publication US20210162028A1, “Methods for Inducing Intermittent Fasting and Modulating Autophagy” (The Hong Kong Polytechnic University, priority 2019, published 2021)
Entries after “also recorded” stand apart in the source; their conditions may differ.

Tests used:
Format in all cases: in vivo, mouse
[1] = Daily food intake / 7-day intermittent fasting cycle in mice
Text: One of the most noticeable effects of intermittent fasting is reduction of bodyweight. […] Specifically, C57BL/6J, which is the most commonly used mouse strain for polygenic obesity model, was used in the study. It is well-reported that C57BL/6J male mice feeding on a high-fat diet will have prominent weight gain, become obese and develop hyperinsulinemia, hyperglycemia, impaired glucose tolerance and insulin resistance [Gallou-Kabani et al., 2007, Obesity 15(8):1996-2005]. Obesity was induced in C57BL/6J male mice via feeding ad libitum a high-fat diet containing 60 kcal % fat (HFD; Research Diets, D12492) for 12-14 weeks starting from 5-week old. These mice are referred as diet-induced obese (DIO) mice. DIO mice were stratified according to bodyweight into 2 groups. […] Both groups of mice continued to feed ad libitum on the HFD throughout the treatment period. One group of age-matched C57BL/6J male mice feeding ad libitum on an ordinary rodent chow diet (CD; LabDiet, 50IF/6F) and injected with vehicle served as the lean control [CD (vehicle) group]. Food intake and bodyweight of mice were measured daily. […] DIO mice were injected with rhArg on Day 0, which was Day 7 of the previous cycle. Similarly, Day 7 of the cycle shown in FIG. 1B was Day 0 of the next cycle. […] Bodyweight gain is one of the biomarkers related to aging.
C57BL/6J male mice were fed a high-fat diet from 5-week old for 12 weeks. They were then stratified into 3 groups according to their bodyweight and individually caged: (i) one group of mice received i.p. injection of 600 U N-ABD094-rhArg (SEQ ID NO: 50) once a week [HFD (rhArg) group] and was fed ad libitum the HFD for 5 weeks; (ii) one group of mice received i.p. injection of saline once a week, and was fed a predetermined amount of HFD on each day to artificially create a 7-day intermittent fasting cycle that mimics the pattern of food intake of mice administered once a week with rhArg [HFD (artificial IF) group)]; (iii) one group of mice was injected with saline once a week and was fed ad libitum the HFD [HFD (vehicle) group].

[2] = Bodyweight of treated mice
[3] = Inverted grid hanging test
LC3-II/LC3-I = experiment: Autophagic flux in liver, LC3-II/LC3-I western blot with chloroquine; conditions: DIO male mice on HFD; 600 U once a week, 4 weeks; Day 3 of cycle
Procedure: Ratio of LC3-II/LC3-I proteins was used as a marker of autophagy and was semiquantified by western blotting. Chloroquine (an autophagy inhibitor, CQ) was injected 5 hr to accumulate autophagosome in the liver before tissue collection. *P<0.05, one-way ANOVA followed by Bonferroni test. Data are expressed as mean±SEM, n=3 for each group.
Autophagy is involved in cell growth, survival, development and death. Impaired autophagic flux has been linked to a variety of human pathophysiological processes, including neurodegeneration, cancer, myopathy, cardiovascular and immune-mediated disorders. There is a growing need to identify and quantify the status of autophagic flux in different pathological conditions. Autophagy is a highly dynamic and complex process that is regulated at multiple steps. Autophagic flux can be detected by LC3-II turnover using western blot analysis in the presence and absence of lysosomal degradation inhibitors, chloroquine (CQ). If autophagic flux is occurring, the level of LC3-II will increase in the presence of a lysosomal degradation inhibitor because the transit of LC3-II through the autophagic pathway will be blocked.

[4] = Hepatic steatosis (oil Red O / H&E staining, liver triglyceride); conditions: DIO C57BL/6J male mice on HFD; for Lipid in liver (H&E staining): 11 weeks after treatment
brown adipocyte = experiment: Transmission electron microscopy of interscapular brown adipose tissue; conditions: HFD-fed male mice, 600 U once a week, 4 weeks
Text: FIG. 52 illustrates the interscapular brown adipose tissue (iBAT) examined by transmission electron microscopy at Day 3 and Day 7 of a 7-day intermittent fasting cycle after N-ABD094-rhArg injection. (A) The BAT of HFD-fed male mice administered with 600 U N-ABD094-rhArg (SEQ ID NO: 50) [HFD (rhArg) group] once a week for 4 weeks, in comparison to that of HFD-fed mice treated with vehicle [HFD (vehicle) group] […] (C) As examined under 5000× magnification, autophagosome engulfed the lipid droplet and breaking into tiny particles.
After prolonged feeding on a HFD, there was a further increase in the size (FIG. 53A) and weight of the interscapular BAT (FIG. 53B) in vehicle-treated DIO mice [HFD (vehicle) group] in comparison to the lean control mice [CD (vehicle) group], which was correlated with the presence of massive amount of enlarged white-like unilobular cells (FIG. 53A). As observed under transmission electron microscopy, brown adipocyte in mice fed with HFD [HFD (vehicle) group] had massive enlarged lipid droplets (FIG. 52A). […] Many autophagosomes were actively forming and engulfing the lipid droplets (FIG. 52B). The autolysosome was also found to be breaking down small lipid droplets, mixing with plenty of lysosomes in the structure (FIG. 52C).

[5] = 16-month old DIO C57BL/6J male mice on HFD, about 600 U once a week, 25 weeks
[6] = DIO C57BL/6J male mice on HFD, 600 U i.p. once a week, 5 weeks (artificial IF experiment)
[7] = DIO C57BL/6J male mice on HFD, 600 U i.p. once a week, 5 weeks (reduced daily food intake experiment)
[8] = DIO C57BL/6J male mice on HFD, about 600 U i.p. once a week, 34 weeks
[9] = DIO C57BL/6J male mice on HFD, about 600 U once a week, 49 weeks

B1: N-ABD094-rhArg: recombinant human arginase fused to albumin binding domain ABD094 (SEQ ID NO: 50); engineered long-acting arginine-depleting enzyme (protein)
chain: MHHHHHHDEAVDANSLAEAKEAANAELDSYGVSDFYKRLIDKAKTVEGVEALKDAILAALPSGSNNNNNNGSGGMSAKSRTIGIIGAPFSKGQPRGGVEEGPTVLRKAGLLEKLKEQECDVKDYGDLPFADIPNDSPFQIVKNPRSVGKASEQLAGKVAEVKKNGRISLVLGGDHSLAIGSISGHARVHPDLGVIWVDAHTDINTPLTTTSGNLHGQPVSFLLKELKGKIPDVPGFSWVTPCISAKDIVYIGLRDVDPGEHYILKTLGIKYFSMTEVDRLGIGKVMEETLSYLLGRKKRPIHLSFDVDGLDPSFTPATGTPVVGGLTYREGLYITEEIYKTGLLSGLDIMEVNPSLGKTPEEVTRTVNTAVAITLACFGLAREGNHKPIDYLNPPK
modifications: N-ABD094-rhArg, Synthesized in the Lab
notes: engineered long-acting arginine-depleting enzyme
[1]; [5]
  Pattern of food intake (intermittent fasting cycles): induce repetitive 7-day intermittent fasting cycles
[1]; 17-month old C57BL/6J male mice on chow diet, about 600 U once a week, 21 weeks
  Pattern of food intake (intermittent fasting cycles): induce repetitive 7-day intermittent fasting cycles
[1]; 25-month old C57BL/6J male mice on chow diet, about 600 U once a week, 30 weeks
  Pattern of food intake (intermittent fasting cycles): prominent repetitive 7-day intermittent fasting cycles
[1]; DIO C57BL/6J male mice on HFD, 200 U rhArg i.p. once a week and/or 0.33 mg RA daily
  Pattern of food intake (intermittent fasting cycle): weak 7 days intermittent fasting cycle
[1]; DIO C57BL/6J male mice on HFD, 200 U rhArg i.p. once a week and/or 0.33 mg RA daily by gastric feeding, 10 weeks
  Total food intake per week, less than HFD (vehicle) group: slight, but insignificant decrease
[1]; DIO C57BL/6J male mice on HFD, 200 U rhArg i.p. once a week and/or 0.33 mg RA daily, listed as rhArg
  Pattern of food intake (intermittent fasting cycle): 7-day pattern of decreased food intake followed by an increase of food intake, but the magnitude was less than HFD (rhArg+RA) group
[1]; DIO C57BL/6J male mice on HFD, 300 U rhArg i.p. once a week and/or 300 mg/kg metformin daily
  Pattern of food intake (intermittent fasting cycle): weak intermittent fasting cycle
[1]; DIO C57BL/6J male mice on HFD, 300 U rhArg i.p. once a week and/or 300 mg/kg metformin daily by gastric feeding, 9 weeks
  Total food intake per week, less than HFD (vehicle) group: did not induce significant change in total food intake per week
[1]; DIO C57BL/6J male mice on HFD, 300 U rhArg i.p. once a week and/or 300 mg/kg metformin daily, listed as rhArg
  Pattern of food intake (intermittent fasting cycle): 7-day pattern of decreased food intake followed by an increase of food intake, but the magnitude was less than HFD (rhArg+Met) group
[1]; [6]
  Total food intake per week, less than HFD (vehicle) group: 26%
[1]; [7]
  Reduction of total food intake per week: 30%
[1]; [8]
  Pattern of food intake (intermittent fasting cycles): repetitive cycles of intermittent fasting; also recorded: repetitive 7-day intermittent fasting cycles
  Total food intake per week, less than HFD (vehicle) group: about 30%
[1]; [9]
  Pattern of food intake (intermittent fasting cycles): repetitive 7-day intermittent fasting cycles
  Total food intake per week, less than HFD (vehicle) group: about 29%
[1]; DIO C57BL/6J male mice on HFD, about 600 U once a week, 49 weeks, listed as rhArg
  Pattern of food intake (intermittent fasting cycles): repetitive cycles of intermittent fasting
[1]; DIO ICR female mice on HFD, about 1200 U i.p. once a week, 56 weeks
  Pattern of food intake (intermittent fasting cycles): repeatedly occurring in ICR female mice throughout the 56 weeks of treatment period; also recorded: repetitive 7-day intermittent fasting cycles
[2]; 16-month old DIO C57BL/6J male mice on HFD, about 68 g prior to treatment, once a week, 25 weeks
  Drop of bodyweight: 50%
[2]; [5]
  Bodyweight maintained for the rest of the treatment period: around 30 g
[2]; 17-month old C57BL/6J male mice on chow diet, about 600 U once a week, 21 weeks, from 40 g
  Bodyweight reached and maintained under treatment: 30 g
[2]; 25-month old C57BL/6J male mice on chow diet, about 600 U once a week, from 45 g within 3 weeks
  Bodyweight reached and maintained under treatment: 30 g
[2]; DIO C57BL/6J male mice on HFD, 300 U rhArg once a week alone or 300 mg/kg metformin daily alone
  Change in bodyweight under single treatment: stable body weight without further increase in body mass
[2]; DIO C57BL/6J male mice on HFD, 300 U rhArg once a week alone or 300 mg/kg metformin daily alone, listed as rhArg
  Change in bodyweight under single treatment: could only prevent further gain in bodyweight, but did not result in weight loss
[2]; [6]
  Change in bodyweight: substantial weight loss
[2]; [7]
  Decrease of bodyweight by the end of treatment: 44%
[2]; DIO C57BL/6J male mice on HFD, about 600 U i.p. once a week, within 6-7 weeks
  Reduction of bodyweight: 40%
[2]; DIO C57BL/6J male mice on HFD, about 600 U once a week, 49 weeks, from 50 g within 6-7 weeks
  Bodyweight reached and maintained under treatment: around 30 g
[2]; DIO C57BL/6J male mice on HFD, about 600 U once a week, 49 weeks, from 50 g within 6-7 weeks, listed as rhArg
  Bodyweight reached and maintained under treatment: 30 g
[2]; DIO C57BL/6J male mice on HFD, rhArg once a week alone or 0.33 mg RA daily alone
  Change in bodyweight under single treatment: stable body weight without further increase
[2]; DIO C57BL/6J male mice on HFD, rhArg once a week alone or 0.33 mg RA daily alone, listed as rhArg
  Change in bodyweight under single treatment: could only prevent further gain in bodyweight, but did not result in weight loss
[2]; DIO ICR female mice on HFD, 1200 U i.p. once a week, within 9-10 weeks
  Decrease of bodyweight: 30%
[2]; DIO ICR female mice on HFD, about 1200 U once a week, 56 weeks
  Bodyweight maintained for the rest of the treatment period: around 35 g
[3]; DIO C57BL/6J male mice on HFD, weekly for 42 weeks
  Inverted grid hanging test: endurance (latency to fall): endurance even higher than mice in CD (vehicle) group
[3]; DIO ICR female mice on HFD, weekly, at 54 weeks
  Inverted grid hanging test: performance: significantly better than mice in HFD (vehicle) group
LC3-II/LC3-I
  LC3-II/LC3-I ratio in liver upon chloroquine injection (autophagic flux): dramatic increase; also recorded: enhancement of autophagic flux
[4]; 600 U once a week, 12 weeks
  Lipid droplets in liver (oil Red O): dramatic clearance of lipid droplets
  Liver triglyceride concentrations: reduced to a level similar to the lean control
[4]; rhArg and/or RA
  Lipid in liver (H&E staining): significant effect on diminishing lipid in liver
[4]; rhArg and/or metformin
  Lipid in liver (H&E staining): slight effect of diminishing lipid in liver
Brown adipocyte
  TEM of BAT, Day 3: autophagy/lipophagy: active lipophagy at Day 3
  TEM of BAT, Day 7: autophagosomes and autolysosomes: continuous active autophagy (lipophagy) was taking place; also recorded: autophagosome and autolysosome numbers had prominently reduced by Day 7
Brown adipocyte; compared with Day 3
  TEM of BAT, Day 7: mitochondria: relatively large amount of mitochondria; also recorded: an increase in mitochondria number was observed
